Measured values taken from patent publication US7078491 (Amgen, dated 2006).

Biological target: T1, flag-tagged hTERT protein from transfected 293T cells (human, UniProt O14746 1-1132)
T1 construct: also called hTERT from 293T cells; 293T lysate
Test: immunoprecipitation from 293T lysate, Western blot with peptide polyclonal antibody
Protocol: Immunoprecipitation experiments were also carried out to verify the specificity of the 4A5 and 4B5 monoclonal antibodies. Protein G Sepharose beads (Pharmacia) were incubated with anti-mouse IgG (Amersham Biotech) in CHAPS buffer (0.5% CHAPS, 10 mM TRIS, 1 mM NaCl, 10% glycerol, 1 mM DTT, RNase inhibitor, Complete Protease Inhibitor; Boehringer Mannheim) at room temperature for 1 to 4 hours. The beads were washed and then incubated again at room temperature for 1 to 4 hours with 2 µg of one of the following antibodies: anti-GST, peptide polyclonal antibody, RT polyclonal antibody, 4A5 monoclonal antibody, 4B5 monoclonal antibody. For the negative control 4G6 antibody, the beads were incubated with 4G6 antibody in CHAPS buffer.
Following the incubation, the beads were washed with the aforementioned buffer and then incubated in the aforementioned buffer containing either 50 µl of hTERT-s200 generated by the TNT reaction on rabbit reticulocyte (see upper panels in FIG. 2) or 100 µl of 293T lysate (see lower panel in FIG. 2) for 1 to 4 hours at 4° C. The beads were washed again in the aforementioned buffer, the excess buffer removed form the beads and suspended in 4× SDS loading dye (see Sambrook et al, supra.). […] Western blotting was carried out as described above and probed with 0.28 µg/ml of peptide polyclonal hTERT antibody and binding was detected with the ECL method. […]

T1 sequence (O14746 whole entry): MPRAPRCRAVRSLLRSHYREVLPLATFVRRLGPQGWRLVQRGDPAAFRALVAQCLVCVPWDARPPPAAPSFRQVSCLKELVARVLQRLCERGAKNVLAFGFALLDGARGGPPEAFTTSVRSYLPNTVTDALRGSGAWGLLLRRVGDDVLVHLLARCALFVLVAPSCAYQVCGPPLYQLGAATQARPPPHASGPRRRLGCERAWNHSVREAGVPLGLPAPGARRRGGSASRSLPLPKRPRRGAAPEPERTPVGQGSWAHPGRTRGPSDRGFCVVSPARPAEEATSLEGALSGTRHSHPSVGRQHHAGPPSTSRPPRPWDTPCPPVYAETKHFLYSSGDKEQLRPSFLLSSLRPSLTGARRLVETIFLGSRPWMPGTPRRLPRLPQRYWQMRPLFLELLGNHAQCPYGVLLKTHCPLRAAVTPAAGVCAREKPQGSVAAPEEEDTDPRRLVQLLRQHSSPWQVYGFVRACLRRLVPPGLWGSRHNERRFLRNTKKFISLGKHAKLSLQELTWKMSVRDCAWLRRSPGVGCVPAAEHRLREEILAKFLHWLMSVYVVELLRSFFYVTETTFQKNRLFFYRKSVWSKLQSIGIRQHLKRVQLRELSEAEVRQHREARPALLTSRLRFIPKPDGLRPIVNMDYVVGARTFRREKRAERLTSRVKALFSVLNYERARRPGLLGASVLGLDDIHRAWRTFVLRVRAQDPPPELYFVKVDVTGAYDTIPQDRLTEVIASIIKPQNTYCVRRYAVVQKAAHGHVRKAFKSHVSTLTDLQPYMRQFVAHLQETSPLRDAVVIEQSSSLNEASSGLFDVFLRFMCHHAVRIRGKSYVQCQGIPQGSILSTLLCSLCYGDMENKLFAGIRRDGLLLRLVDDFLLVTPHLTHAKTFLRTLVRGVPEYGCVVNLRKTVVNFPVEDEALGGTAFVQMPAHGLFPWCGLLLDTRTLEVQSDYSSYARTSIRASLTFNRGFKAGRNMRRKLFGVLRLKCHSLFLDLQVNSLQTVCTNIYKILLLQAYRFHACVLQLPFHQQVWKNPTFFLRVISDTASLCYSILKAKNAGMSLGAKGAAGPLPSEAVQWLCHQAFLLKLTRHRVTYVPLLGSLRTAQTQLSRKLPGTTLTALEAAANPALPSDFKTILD

binding result: binds
B1: 4A5 monoclonal antibody (hybridoma 4A5, ATCC PTA-2412) (antibody, V domains shown)
VH: EVKLVESGGGLVKPGGSLKLSCAASGFTFSSYAMSWVRQTPEKRLEWVASISSGGNTYYPDNVQGRFTISRDNARNILYLQMSSLRSEDTAMFYCAREGVYDTYGGVDYWGQGTTLTVSS
VL: DIVLTQSPTSLAVSLGQRATISCKASQSVDYDGDSFINWYQQTPGQPPKLLIYAASNLASGIPARFSGSGSGTDFTLNIHPVEEEDAATYYCQQSNEAPPTFGGGTKLEI
notes: Mouse monoclonal from hybridoma, characterized as IgG2B type, kappa light chain primers used; also called 4A5 mAb; 45A
